Source: the RNAGym collection of RNA variant scans (doi:10.1093/molbev/msab373)

B1: Azoarcus group I ribozyme (parent)
chain: GUGCCUUGCGCCGGGAAACCACGCAAGGGAUGGUGUCAAAUUCGGCGAAACCUAAGCGCCCGCCCGGGCGUAUGGCAACGCCGAGCCAAGCUUCGGCGCCUGCGCCGAUGAAGGUGUAGAGACUAGACGGCACCCACCUAAGGCAAACGCUAUGGUGAAGGCAUAGUCCAGGGAGUGGCGAAAGUCACACAAACCGG

Variants of: B1
Assay: reverse-splicing fitness (ratio to wild type); higher = more active; in vitro selection; Mg2+ level not given
Method in brief: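 An in vitro group I ribozyme library with randomized positions was T7-transcribed and gel-purified. In triplicate, 10 pmol RNA in EPPS pH 7.5 was reacted with 50 pmoles of a 30-nt RNA substrate for 1 h at 37 °C across several added MgCl2 levels (1–48 mM), then stopped with EDTA. Products were reverse transcribed from a substrate-complementary primer, PCR-amplified and sequenced (HiSeq 4000). Fitness is a variant's read proportion after selection over that before, normalised to wild type.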

Going from GUGCCUUGCGCCGGGAAACCACGCAAGGGAUGGUGUCAAAUUCGGCGAAACCUAAGCGCCCGCCCGGGCGUAUGGCAACGCGGAGCCAAGCUUCGGCGCCUGCGCCGAUGGAGGUGUAGUGACUAGACGGCACCCACCUAAGGCCAACGAUAUGGUGAAGGCAUAGUCUAGGGAGAGGCGAAAGUCACACAAACCGG [C82G A111G A120U A145C C150A C169U U176A] to GUGCCUUGCGCCGGGAAACCACGCAAGGGAUGGUGUCAAAUUCGGCGAAACCUAAGCGCCCGCCCGGGCGUAUGGCAACGCGGAGCCAAGCUUCGGCGCCUGCGCCGAUGGAGGUGUAGUGACUAGACGGCACCCACCUAAGGCCAACGAUAUGGUGAAGGCAUAGUCUAGGGAGCGGCGAAAGUCACACAAACCGG [C82G A111G A120U A145C C150A C169U U176C], the reverse-splicing fitness falls from 0.00266 to 0.00238.

First: GUGCCUUGCGCCGGGAAACCACGCAAGGGAUGGUGUCAAAUUCGGCGAAACCUAAGCGCCCGCCCGGGCGUAUGGCAACGCGGAGCCAAGCUUCGGCGCCUGCGCCGAUGGAGGUGUAGUGACUAGACGGCACCCACCUAAGGCCAACGAUAUGGUGAAGGCAUAGUCUAGGGAGGGGCGAAAGUCACACAAACCGG [C82G A111G A120U A145C C150A C169U U176G]
Second: GUGCCUUGCGCCGGGAAACCACGCAAGGGAUGGUGUCAAAUUCGGCGAAACCUAAGCGCCCGCCCGGGCGUAUGGCAACGCGGAGCCAAGCUUCGGCGCCUGCGCCGAUGGAGGUGUAGUGACUAGACGGCACCCACCUAAGGCCAACGAUAUGGUGAAGGCAUAGUCCAGGGAGAGGCGAAAGUCACACAAACCGG [C82G A111G A120U A145C C150A U176A]
The reverse-splicing fitness of the first is lower: 0.0019 for the first, 0.00245 for the second.

Going from GUGCCUUGCGCCGGGAAACCACGCAAGGGAUGGUGUCAAAUUCGGCGAAACCUAAGCGCCCGCCCGGGCGUAUGGCAACGCGGAGCCAAGCUUCGGCGCCUGCGCCGAUGGAGGUGUAGUGACUAGACGGCACCCACCUAAGGCCAACGAUAUGGUGAAGGCAUAGUCCAGGGAGCGGCGAAAGUCACACAAACCGG [C82G A111G A120U A145C C150A U176C] to GUGCCUUGCGCCGGGAAACCACGCAAGGGAUGGUGUCAAAUUCGGCGAAACCUAAGCGCCCGCCCGGGCGUAUGGCAACGCGGAGCCAAGCUUCGGCGCCUGCGCCGAUGGAGGUGUAGUGACUAGACGGCACCCACCUAAGGCCAACGAUAUGGUGAAGGCAUAGUCCAGGGAGGGGCGAAAGUCACACAAACCGG [C82G A111G A120U A145C C150A U176G], the reverse-splicing fitness falls from 0.00344 to 0.00169.

Going from GUGCCUUGCGCCGGGAAACCACGCAAGGGAUGGUGUCAAAUUCGGCGAAACCUAAGCGCCCGCCCGGGCGUAUGGCAACGCGGAGCCAAGCUUCGGCGCCUGCGCCGAUGGAGGUGUAGUGACUAGACGGCACCCACCUAAGGCCAACGGUAUGGUGAAGGCAUAGUCCAGGGAGUGGCGAAAGUCACACAAACCGG [C82G A111G A120U A145C C150G] to GUGCCUUGCGCCGGGAAACCACGCAAGGGAUGGUGUCAAAUUCGGCGAAACCUAAGCGCCCGCCCGGGCGUAUGGCAACGCGGAGCCAAGCUUCGGCGCCUGCGCCGAUGGAGGUGUAGUGACUAGACGGCACCCACCUAAGGCCAACGGUAUGGUGAAGGCAUAGUCAAGGGAGUGGCGAAAGUCACACAAACCGG [C82G A111G A120U A145C C150G C169A], the reverse-splicing fitness falls from 0.00878 to 0.00256.

First: GUGCCUUGCGCCGGGAAACCACGCAAGGGAUGGUGUCAAAUUCGGCGAAACCUAAGCGCCCGCCCGGGCGUAUGGCAACGCGGAGCCAAGCUUCGGCGCCUGCGCCGAUGGAGGUGUAGUGACUAGACGGCACCCACCUAAGGCCAACGGUAUGGUGAAGGCAUAGUCAAGGGAGAGGCGAAAGUCACACAAACCGG [C82G A111G A120U A145C C150G C169A U176A]
Second: GUGCCUUGCGCCGGGAAACCACGCAAGGGAUGGUGUCAAAUUCGGCGAAACCUAAGCGCCCGCCCGGGCGUAUGGCAACGCGGAGCCAAGCUUCGGCGCCUGCGCCGAUGGAGGUGUAGUGACUAGACGGCACCCACCUAAGGCCAACGGUAUGGUGAAGGCAUAGUCAAGGGAGCGGCGAAAGUCACACAAACCGG [C82G A111G A120U A145C C150G C169A U176C]
The reverse-splicing fitness of the first is higher: 0.00237 for the first, 0.00236 for the second.

Compared with GUGCCUUGCGCCGGGAAACCACGCAAGGGAUGGUGUCAAAUUCGGCGAAACCUAAGCGCCCGCCCGGGCGUAUGGCAACGCGGAGCCAAGCUUCGGCGCCUGCGCCGAUGGAGGUGUAGUGACUAGACGGCACCCACCUAAGGCCAACGGUAUGGUGAAGGCAUAGUCAAGGGAGGGGCGAAAGUCACACAAACCGG [C82G A111G A120U A145C C150G C169A U176G], GUGCCUUGCGCCGGGAAACCACGCAAGGGAUGGUGUCAAAUUCGGCGAAACCUAAGCGCCCGCCCGGGCGUAUGGCAACGCGGAGCCAAGCUUCGGCGCCUGCGCCGAUGGAGGUGUAGUGACUAGACGGCACCCACCUAAGGCCAACGGUAUGGUGAAGGCAUAGUCGAGGGAGUGGCGAAAGUCACACAAACCGG [C82G A111G A120U A145C C150G C169G] is higher in reverse-splicing fitness: 0.00183 for the first, 0.0027 for the second.

Compared with GUGCCUUGCGCCGGGAAACCACGCAAGGGAUGGUGUCAAAUUCGGCGAAACCUAAGCGCCCGCCCGGGCGUAUGGCAACGCGGAGCCAAGCUUCGGCGCCUGCGCCGAUGGAGGUGUAGUGACUAGACGGCACCCACCUAAGGCCAACGGUAUGGUGAAGGCAUAGUCGAGGGAGAGGCGAAAGUCACACAAACCGG [C82G A111G A120U A145C C150G C169G U176A], GUGCCUUGCGCCGGGAAACCACGCAAGGGAUGGUGUCAAAUUCGGCGAAACCUAAGCGCCCGCCCGGGCGUAUGGCAACGCGGAGCCAAGCUUCGGCGCCUGCGCCGAUGGAGGUGUAGUGACUAGACGGCACCCACCUAAGGCCAACGGUAUGGUGAAGGCAUAGUCGAGGGAGCGGCGAAAGUCACACAAACCGG [C82G A111G A120U A145C C150G C169G U176C] is lower in reverse-splicing fitness: 0.00278 for the first, 0.00228 for the second.

GUGCCUUGCGCCGGGAAACCACGCAAGGGAUGGUGUCAAAUUCGGCGAAACCUAAGCGCCCGCCCGGGCGUAUGGCAACGCGGAGCCAAGCUUCGGCGCCUGCGCCGAUGGAGGUGUAGUGACUAGACGGCACCCACCUAAGGCCAACGGUAUGGUGAAGGCAUAGUCGAGGGAGGGGCGAAAGUCACACAAACCGG [C82G A111G A120U A145C C150G C169G U176G] showed a reverse-splicing fitness of 0.00196.
